The text below walks through data of patent US6713265.

Test [1] deals with rat hypothalamic Y5 receptor (rat) (UniProt Q63634). The test can be described thus: 125I-PYY displacement, COS-7 membranes.
The target of test [2] is rat hypothalamic membranes (NPY/PYY binding sites). The test can be described thus: 125I-PYY displacement, rat hypothalamic membranes.
For test [3] the target is unchanged. The test can be described thus: 125I-PYY3-36 displacement, rat hypothalamic membranes.
For the next test, the target named is rat Y4 receptor (rat) (UniProt Q63447). The test can be described thus: 125I-PYY displacement, COS-7 membranes.
Test [4] concerns the target rat hypothalamic membranes (NPY/PYY binding sites). The test can be described thus: 125I-PYY displacement, rat hypothalamic membranes, low-affinity part.
Test [5] shares this target. The test can be described thus: 125I-PYY displacement, rat hypothalamic membranes, high-affinity part.
The target is the same in test [6]. Nature of the test: 125I-PYY3-36 displacement, rat hypothalamic membranes, low-affinity part.
Test [7] has the same target. Nature of the test: 125I-PYY3-36 displacement, rat hypothalamic membranes, high-affinity part.
For test [8], the target named is rat hypothalamic Y5 receptor (rat) (UniProt Q63634). Nature of the test: cell-based or functional assay.
Test [9] deals with canine Y5 receptor (canine) (UniProt O62729). The test can be described thus: 125I-PYY displacement, COS-7 membranes.
Test [10] has as its target human Y1 receptor (human) (UniProt P25929). Nature of the test: 125I-PYY displacement, COS-7 membranes.
In test [11] the target is human Y2 receptor (human) (UniProt P49146). The test can be described thus: 125I-PYY displacement, COS-7 membranes.
Test [12] addresses human Y4 receptor (human) (UniProt P50391). The test can be described thus: 125I-PYY displacement, COS-7 membranes.
The target in test [13] is rat hypothalamic Y5 receptor (rat) (UniProt Q63634). Nature of the test: 125I-PYY displacement, COS-7 membranes. The source holds these as a separate data set.
The target in the next test is rat Y1 receptor (rat) (UniProt P21555). The test can be described thus: 125I-PYY displacement, COS-7 membranes.
The next test deals with rat Y2 receptor (rat) (UniProt Q9ERC0). The test can be described thus: 125I-PYY displacement, COS-7 membranes.
Test [14] concerns the target human Y5 receptor (human) (UniProt Q15761). The test can be described thus: 125I-PYY displacement, COS-7 membranes.
The target in test [15] is rat hypothalamic Y5 receptor (rat) (UniProt Q63634). The test can be described thus: 125I-PYY displacement, COS-7 membranes. This is another data set of the same source.
Test [16] concerns the target human Y5 receptor (human) (UniProt Q15761). The test can be described thus: 125I-PYY displacement, LM(tk-) membranes.
For test [17] the target is unchanged. Nature of the test: 125I-PYY3-36 displacement, LM(tk-) membranes.
The target is the same in test [18]. Nature of the test: cell-based or functional assay.
Test [19] has the same target. Nature of the test: 125I-PYY displacement, COS-7 membranes. This is another data set of the same source.

The Ki is a measure of affinity in units of concentration, obtained from inhibition or displacement. Broadly, the IC50 is the concentration at which inhibition is half-maximal. A lower IC50 goes with higher potency.

Read-outs that look alike come from different tables or passages of the source.

Chain of rat hypothalamic Y5 receptor (rat) (Q63634 other isoform, or with tags, fused parts or gaps): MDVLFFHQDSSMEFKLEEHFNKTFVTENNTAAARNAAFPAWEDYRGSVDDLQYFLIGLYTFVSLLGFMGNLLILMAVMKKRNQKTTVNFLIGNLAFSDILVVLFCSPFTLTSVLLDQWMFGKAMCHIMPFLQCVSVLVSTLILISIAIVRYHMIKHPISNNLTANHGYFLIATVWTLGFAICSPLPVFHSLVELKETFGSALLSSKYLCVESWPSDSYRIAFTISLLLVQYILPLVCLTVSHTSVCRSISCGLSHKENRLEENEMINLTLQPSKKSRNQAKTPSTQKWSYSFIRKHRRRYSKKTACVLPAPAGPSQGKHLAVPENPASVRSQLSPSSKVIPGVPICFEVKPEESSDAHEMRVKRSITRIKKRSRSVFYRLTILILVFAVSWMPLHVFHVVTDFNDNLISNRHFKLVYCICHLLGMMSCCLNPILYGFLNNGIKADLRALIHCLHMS
Chain of salmon PP (peptide) (P69092 whole entry): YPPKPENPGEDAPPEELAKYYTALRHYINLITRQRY
Chain of rat Y4 receptor (rat) (Q63447 whole entry): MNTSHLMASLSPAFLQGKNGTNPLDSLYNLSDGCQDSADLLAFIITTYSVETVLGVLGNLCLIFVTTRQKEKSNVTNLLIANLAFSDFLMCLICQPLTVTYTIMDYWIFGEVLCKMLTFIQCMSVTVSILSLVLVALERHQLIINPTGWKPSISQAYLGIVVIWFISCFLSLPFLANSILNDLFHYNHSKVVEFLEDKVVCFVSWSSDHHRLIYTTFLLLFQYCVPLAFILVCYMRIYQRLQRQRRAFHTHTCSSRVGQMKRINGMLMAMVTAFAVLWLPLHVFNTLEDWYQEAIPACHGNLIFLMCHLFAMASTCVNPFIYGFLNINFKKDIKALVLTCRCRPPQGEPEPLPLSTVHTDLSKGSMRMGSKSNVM
Chain of human Y5 receptor (human) (Q15761 other isoform, or with tags, fused parts or gaps): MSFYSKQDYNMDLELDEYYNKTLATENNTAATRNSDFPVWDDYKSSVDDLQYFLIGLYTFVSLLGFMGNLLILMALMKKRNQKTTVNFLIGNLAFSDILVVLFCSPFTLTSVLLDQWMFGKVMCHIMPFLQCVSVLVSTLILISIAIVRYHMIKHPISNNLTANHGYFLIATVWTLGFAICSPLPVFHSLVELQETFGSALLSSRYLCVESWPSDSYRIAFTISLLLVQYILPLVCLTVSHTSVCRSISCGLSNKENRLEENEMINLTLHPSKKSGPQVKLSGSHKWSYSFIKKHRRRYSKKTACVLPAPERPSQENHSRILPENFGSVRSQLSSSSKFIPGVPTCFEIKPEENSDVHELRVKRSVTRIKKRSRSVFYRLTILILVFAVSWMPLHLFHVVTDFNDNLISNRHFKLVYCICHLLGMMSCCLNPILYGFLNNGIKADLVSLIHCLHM
Chain of human Y1 receptor (human) (P25929 whole entry): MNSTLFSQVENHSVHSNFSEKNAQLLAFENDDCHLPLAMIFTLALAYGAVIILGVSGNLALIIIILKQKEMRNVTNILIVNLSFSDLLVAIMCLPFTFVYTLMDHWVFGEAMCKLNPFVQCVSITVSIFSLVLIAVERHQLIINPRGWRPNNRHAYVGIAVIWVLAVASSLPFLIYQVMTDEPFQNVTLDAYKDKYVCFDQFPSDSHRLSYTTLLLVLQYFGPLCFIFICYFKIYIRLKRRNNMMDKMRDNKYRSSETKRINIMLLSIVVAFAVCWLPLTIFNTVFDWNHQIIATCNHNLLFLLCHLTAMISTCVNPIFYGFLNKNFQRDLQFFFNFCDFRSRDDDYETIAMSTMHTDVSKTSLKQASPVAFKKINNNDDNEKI
Chain of rat Y1 receptor (rat) (P21555 whole entry): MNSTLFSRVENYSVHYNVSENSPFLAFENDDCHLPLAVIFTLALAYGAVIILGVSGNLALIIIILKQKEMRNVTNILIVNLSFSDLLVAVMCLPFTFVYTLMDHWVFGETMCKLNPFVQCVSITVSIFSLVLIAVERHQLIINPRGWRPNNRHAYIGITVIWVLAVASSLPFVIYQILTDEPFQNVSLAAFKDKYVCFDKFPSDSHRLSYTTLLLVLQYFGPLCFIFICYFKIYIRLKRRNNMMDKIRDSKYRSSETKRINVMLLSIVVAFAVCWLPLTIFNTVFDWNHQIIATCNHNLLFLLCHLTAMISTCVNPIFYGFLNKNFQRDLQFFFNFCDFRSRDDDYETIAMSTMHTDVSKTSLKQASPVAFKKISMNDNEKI
Chain of human Y2 receptor (human) (P49146 whole entry): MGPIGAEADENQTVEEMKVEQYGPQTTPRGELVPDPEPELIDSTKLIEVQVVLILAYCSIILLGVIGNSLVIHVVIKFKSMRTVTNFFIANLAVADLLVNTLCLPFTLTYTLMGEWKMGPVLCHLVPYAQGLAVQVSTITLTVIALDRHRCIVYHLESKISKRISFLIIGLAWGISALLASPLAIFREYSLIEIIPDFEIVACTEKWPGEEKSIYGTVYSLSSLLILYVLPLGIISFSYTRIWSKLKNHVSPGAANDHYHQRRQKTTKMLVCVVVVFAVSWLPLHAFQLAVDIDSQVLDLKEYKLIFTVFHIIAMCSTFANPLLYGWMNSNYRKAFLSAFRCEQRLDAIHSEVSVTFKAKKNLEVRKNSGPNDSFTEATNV
Chain of rat Y2 receptor (rat) (Q9ERC0 entry or part of it): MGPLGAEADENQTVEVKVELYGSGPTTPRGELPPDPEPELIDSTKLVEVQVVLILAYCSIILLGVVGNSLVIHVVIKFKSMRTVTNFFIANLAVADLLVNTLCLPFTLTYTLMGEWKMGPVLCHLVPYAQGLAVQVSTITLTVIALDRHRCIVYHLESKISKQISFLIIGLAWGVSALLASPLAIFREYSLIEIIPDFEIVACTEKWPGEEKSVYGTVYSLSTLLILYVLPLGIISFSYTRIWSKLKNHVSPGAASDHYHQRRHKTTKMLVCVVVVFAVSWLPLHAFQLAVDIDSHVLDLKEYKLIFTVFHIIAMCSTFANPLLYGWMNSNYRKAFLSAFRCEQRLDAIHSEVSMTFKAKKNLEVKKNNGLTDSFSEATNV
Chain of human Y4 receptor (human) (P50391 whole entry): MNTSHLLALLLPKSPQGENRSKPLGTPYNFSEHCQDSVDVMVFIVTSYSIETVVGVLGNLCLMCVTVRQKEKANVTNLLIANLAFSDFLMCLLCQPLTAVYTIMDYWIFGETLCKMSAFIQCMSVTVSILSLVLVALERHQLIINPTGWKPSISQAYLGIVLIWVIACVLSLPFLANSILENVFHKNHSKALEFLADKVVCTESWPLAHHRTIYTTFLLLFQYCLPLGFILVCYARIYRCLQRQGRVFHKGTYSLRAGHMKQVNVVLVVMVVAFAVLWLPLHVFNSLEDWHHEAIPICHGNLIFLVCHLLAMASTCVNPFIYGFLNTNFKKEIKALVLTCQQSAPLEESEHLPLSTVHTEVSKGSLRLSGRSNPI
Chain of canine Y5 receptor (canine) (O62729 other isoform, or with tags, fused parts or gaps): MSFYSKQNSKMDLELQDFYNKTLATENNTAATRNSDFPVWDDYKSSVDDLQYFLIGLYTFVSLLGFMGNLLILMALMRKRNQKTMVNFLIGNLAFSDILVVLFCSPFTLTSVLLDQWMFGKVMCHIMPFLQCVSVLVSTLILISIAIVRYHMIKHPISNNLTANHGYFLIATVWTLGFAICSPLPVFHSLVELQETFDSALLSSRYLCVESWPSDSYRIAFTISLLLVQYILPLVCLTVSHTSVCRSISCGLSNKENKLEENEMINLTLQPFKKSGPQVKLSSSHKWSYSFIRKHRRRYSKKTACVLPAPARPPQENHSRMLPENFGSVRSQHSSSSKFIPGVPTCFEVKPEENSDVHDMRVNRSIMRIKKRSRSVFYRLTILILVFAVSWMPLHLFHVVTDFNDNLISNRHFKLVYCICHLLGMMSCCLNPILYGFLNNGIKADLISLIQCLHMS

The substance W(nor-L)RF-amide (peptide) gave a Ki in test [1] of 8700 nM.
For the substance “human NPY2-36 (from UniProt P01303 30-64) (peptide)”, in test [2], the % NPY-produced displacement was 100% and the IC50 came to 2.3 nM. Moreover, in test [3], the % NPY-produced displacement came out at 100% and the IC50 was 1.2 nM.
“human NPY2-36, P01303 30-64 (peptide; other documents disagree on this pair)” registered a Ki with rat Y4 receptor (rat) of 5 nM.
The substance “human PP (from UniProt P01298 30-65) (peptide)” came in with a % NPY-produced displacement in [2] of 20%.
In the case of “human PYY (from UniProt P10082 29-64) (peptide)”, the % NPY-produced displacement in test [2] is 100%. In addition, in [3], the % NPY-produced displacement was found to be 100% and the IC50 came to 0.29 nM.
Take “human [Leu^31, Pro^34]NPY (from UniProt P01303 29-64) (peptide)”: the % NPY-produced displacement in [4] is 56%; in test [5], 44%; in test [6], 73%; in test [7] it was 27%. Besides, the IC50 in [4] amounted to 340 nM; in [5], 0.21 nM; in [6], 250 nM; in [7], 0.38 nM.
In turn, porcine C2-NPY (peptide) displayed an EC50, inhibition of forskolin-stimulated cAMP accumulation, 293 cells in test [8] of 240 nM. In addition, the Ki is 300 nM in [9]; 79 nM in test [10]; 3.5 nM in [11]; 120 nM in test [12]; 470 nM in [13]; 140 nM with rat Y1 receptor (rat). Also, the Ki is 2.6 nM in the test with rat Y2 receptor (rat); 22 nM with rat Y4 receptor (rat); 370 nM in [14]; 260 nM in test [15]; 260 nM in [16]; 220 nM in test [17].
“porcine NPY3-36, P01304 12-45 (peptide; other documents disagree on this pair)” showed a Ki in the test with rat Y4 receptor (rat) of 36 nM.
In the case of “rat/human NPY (from UniProt P01303 29-64) (peptide)”, the % NPY-produced displacement in test [2] and in [3] was 100% throughout. For the same substance, in test [2], the IC50 came to 0.82 nM.
The substance “rat/human NPY, P01303 29-64 (peptide; C-terminal amide; other documents disagree on this pair)” showed a Ki with rat Y4 receptor (rat) of 1.7 nM.
Substance salmon PP (peptide) registered a % inhibition relative to human NPY, cAMP, LM(tk-) cells in [18] of 96%. The EC50, inhibition of forskolin-stimulated cAMP accumulation, LM(tk-) cells in test [18] came out at 4.5 nM. In addition, the EC50, inhibition of forskolin-stimulated cAMP accumulation, 293 cells in [8] came out at 0.92 nM. Also, the Ki in test [10] was determined as 0.11 nM; in test [11], 0.17 nM; in test [12], 3.2 nM; in [19] it was 0.46 nM; in test [13], 0.31 nM; with rat Y1 receptor (rat), 0.3 nM. Besides, the Ki with rat Y2 receptor (rat) worked out at 0.16 nM; with rat Y4 receptor (rat), 3 nM; in [1] it was 0.33 nM; in test [14] it was 0.27 nM; in test [17], 0.63 nM.
